The assay concerns the target soluble Aβ (Aβ42) aggregates (human). Kind of assay: cell-based or functional assay.

One substance from patent US20230331828A1 can be followed below.

soluble Aβ (Aβ42) aggregates (human), sequence (peptide, as listed by the source): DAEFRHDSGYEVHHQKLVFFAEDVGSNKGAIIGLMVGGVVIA

Take human IgG isotype control antibody: the Mean (Aβ spots per neuron); Isotype Control 1:50 (Aβ spots per neuron) came to 58.7.
